This data set is described as follows: label from the status in PepcDB records.
With “MRTPAWLGSGMPLLFVLLWSTGFLGAKFGLPYAEPFTFLAIRLLLAAALLAAFALLSGAPWPGSARLAGHVAVAGLLVHGLYLGGVFLAIEHGMSAGLTSLLVGLQPLATAALAGIWLGEQVSRRQWLGLALGLAGVALVVLGRIHGGADGLAWAAVLVALAAITCGTLYQKRFCGGMDLRTGGVVQYLASGALLGLAALLFESREVQWSTPFVLTLGWLVLGLSFGAVGLLYTLIRHGAASKVASLFYLVPPVTALASWLLFDERLAPAAIGGMLLVMLGVALVNWPGRRA”, the protein production result is given as “failed”.
Regarding “MTKETDDDDNDIPIQEDDEEKNPDQDYQELLDGLLNLSGRQLLMFYWDHELTEAVREGFEVISQKWMKGIDQMWVHWNTSRATVRSESASQFRNSDRGGLGPHRNISSQKSFVQVHEELEELYGRHVSLGEVFMKTHTRADGSFVDAKAEKVAEVYKKACEEKLTEIDDDGPKTSMNSSELSTHRDLNIDDKNEIFLQSAS”, the protein production result is “failed”.
The value for “MRISCMSSFLTSDVLIAFSVTFLAGLATLLGGAIVLFFKQPSLRLLSFGLAFSAGAMVYISLTEILNKSIHSFSEVFSAKVGFAFATFAFLTGVIAILLLDRCVPNPHTMLEKTTAQQLDQTQLRRTGLLTMLAITAHNFPEGLATFFATLDSPILGAPLAVAIAIHNIPEGIAIAVPVYMATGQKSYAIWASLLSGLAEPLGAALGYFILAPYMGATMYGIIFGLIAGVMVYLAMDELLPAAKKYSQGHETVYGLVTGMAALATSLVLFQWV” was “failed”; that for “MEQNSGTSSASGRALFPLYAITFIGTLGFGIILTFLVFLVTDYGGNALVYGILASTYPAFQLIGAPVLGRWSDLYGRKKILLLSQIGTMLAWIIFFAALFFPVIPLIEVRSDLLGTFTITLPLLILFLARALDGATGGNVSVANAYLADLTSEEERNKNYGRMSVASNLGYVFGPAIAGVLGTTAYGEILPVSAALVISIIGTLIVLFLLPDSRPCAIEEYPESTGIRKILGQEQKECYQVEAGSKITFREVFKLEYIPFMLVVYFLIFLGFNIYYTAFPIFAVVALEWSPAELGIYFSVISALMAFVQGPVLAKLARRYRESIMVVGGGFILGLQFILIVSGDYLLLYLAAVFFAFGNGIMWPSILSILSKFAGKKYQGSVQGFAMSASSLASIIGLLAGGFLYTQFGVIAFLIAAAIIYLVVFLSFRLLRIEKEKLIETEAAKTPV” was “failed”; that for “MSSTASSVFADETLLFEPATPIANAVPLIFAFPNEYSVGITSLGFQIVWATLAARSDLQVSRLFTDIAEPLPRQPELLGFSLSWELDYVNILAMLEQLGIPLRSRDRGDEHPLVFGGGPTLTANPEPFADFFDVILVGDGEVLLDAFIDAYQPLRDRPRAEKLRQLAQVPGLYIPALYEPIYEAADGAIATIQPIDNDIPVQIEKQTYRGNVLSASTVVTPRAAWESIYMVEVVRSCPEMCRFCLASYLTLPFRTASLEESLQPAIARGLTATQRIGLLGASVTQHPEFPALLDRLGQPEFTDVRLSVASVRTNTVTEKFASILAQRGTKSLTIAVESGSERLRQVINKKLAQAEITEAAVNAKAGGLQGLKLYGMAGVPTETEDDLLATAEMLKGLKKAAPGLRLSYGCSTFVPKAQTPFQWQGVSPKAEKRLQFLQKQLRPQGIEFRPESYSWSVIQALISRGDRRLSSLLERVRHYGESLGSYRRAFKELKGTLPPLDFYVFQDWEPEAPLPWQHLRGPLPVETLRKHRQQAFAIAAAGVGSK” was “failed”.
The value for “MSVHHAERFLPFSDLQMFTLVADVERYPQFVPWWIAARVIDSRPAPAGDGPDAKIYRTDQVIGMGPVRLRFTSRTLLVSPRRISVASQGGGPVRDLSLDWWFDAQPGGCLTRLDMTLDLGSRSLENLLAGMSSEAAVKLVDAFERRAHALYQGG” was “failed”.
Under “RQKLLADFGEFALSNDNLADILTEACRLVGNALGTQRANVLEIEPSKRSLFVRAGVGLDDGIVGKLRLPMREIASERFSPDGSPLDIIHDVHTEPQYDLAAFMEVAGVVALVNVPILLPGRTLYGLLQVESSEPREFSQDDVEFLRTYSTILGPVIDRLNKVRALRDAEERFRLIVEAAR” stands “failed”; under “MNQIAPRRFSGLRIVLLVLLAVLAFLLLMPTRVQPVAWNPAPAPSLSQGPFAENQKLKAVQPVGARDIDGPEALLLEHEQLLSGLHDGRVIQSSLDGSALKVLVNTGGRPLGLARHPDGRLIIADAIKGLLALDSQGQLQTLSTEANGLKFGFTDDVAVDAAGRYAYFSDATSRWGYGHDGEAVIEHGADGRLLRYDFQSGTTEVLLDRLEFANGIALGPDEAYVLVNETGAYRISRYWLKGDKAGSHDLFIDNLPGLPDNLSFNGAGRFWVALYAPRNPLLDATAPYPFVRKMLVRAMTVLPKPVEKRGFVLGLDTQGRVIANLQDGSSGNYSPITTVREYGDALYLGSLTARHMARLSLKEALAP”, “failed”.
On to “MAQNPERRAALVNAAIEVLAREGARGLTFRAVDVEANVPKGTASNYFPSRDDLFDQVGKRIHERLGPDPSVVEESGRKPQNLELAIEYMQGLFGRITRDRTGYLALQELRLEAVRRPELRTTLTRTISENLKRDIGFHLDSGLPGDRSTVLMLYLAMNALIVEHLTLPGVLEGVDTERLVADLVTRAVATPDA”, for which the protein production result is “not failed”.
The value for “MSDWPPKPQNEVQNSNNKTGQEWQILEKAVLASVEEQRRTRRWGIFFKFLTFLYLLFVFVLLGRGCTTSESSGGTSSSTAHLAVVNIIGTIDSSNQSVNSEDTNKALERAFEAKNSKAVALNINSPGGSPVQSDEIWQEIRYLKKQHPDKKVYAVIGDMGASGAYYIASAADEIIVNPSSLVGSIGVIMPNYGITGLAQKLGIEDRTLTSGSNKDILSMTKPVNPAQREHIQSVLDNVHAHFINAVKEGRGTRLKSNDPAIFSGLFWTGEQAIQLGVADRTGNLDTLMRELKVENKVNYTIERSPFESILGKMGSELGQGISQSVSQQLKTEQQAKLQ” was “failed”; that for “MYLRSYMGWRFWALFFCLCSPSSVSAERLASSYLKVTEEAASSRQLIRYCVDPDWLPYEAIREGEHVGISSDYIRYIESHSNFKFSLVPTTSWSETLNFLQTGRCELTPMLNKTATREQFLHFSHVYFHSPNVLVSLKEQPFLQGFENIGSRTLAVPKGYRLAEYIQHYYPKVKIIEVGSEPAGLEAVLDKRADLFVGSMFSVNAYIQQTGFNHLKIAGWGGPEDELRMGVSLGHEALLPILNQVLDDVDELERIRIYQKWNNITVIDETNYLLIYQVIVGTLLVVFLLATRTFFISRYNRRLTDKNEQLEALRLRLEHTNAELEFLSTHDPLTKLYNRHYFNRQFVHEHRSEISSEGAICLVMLDIDFFKEINDTLGHAVGDNILMELSGVLQHCVRETDVVARWGGEEFVILCHQTSIDLVKTLCQRIAAAIKDYRFSGNVQLTCSFGIAKLVNNEPMQSCFERADKALYQAKALGRNQICVDEFNT” was “failed”.
Under “GSSGSSGMSSMTQNLREVMKVMFKVPGFDRVLEKVTLVSAAPEKLICEMKVEEQHTNKLGTLHGGLTATLVDSISTMALMCTERGAPGVSVDMNITYMSPAKIGEEIVITAHILKQGKTLAFASVDLTNKTTGKLIAQGRHTKHLGNSGPSSG” stands “not failed”; under “MAGAPGPLRLALLLLGMVGRAGPRPQGATVSLWETVQKWREYRRQCQRSLTEDPPPATDLFCNRTFDEYACWPDGEPGSFVNVSCPWYLPWASSVPQGHVYRFCTAEGLWLQKDNSSLPWRDLSECEESKRGERSSPEEQLLFLYIIYTVGYALSFSALVIASAILLGFRHLHCTRNYIHLNLFASFILRALSVFIKDAALKWMYSTAAQQHQWDGLLSYQDSLSCRLVFLLMQYCVAANYYWLLVEGVYLYTLLAFSVLSEQWIFRLYVSIGWGVPLLFVVPWGIVKYLYEDEGCWTRNSNMNYWLIIRLPILFAIGVNFLIFVRVICIVVSKLKANLMCKTDIKCRLAKSTLTLIPLLGTHEVIFAFVMDEHARGTLRFIKLFTELSFTSFQGLMVAILYCFVNNEVQLEFRKSWERWRLEHLHIQRDSSMKPLKCPTSSLSSGATAGSSMYTATCQASCS”, “failed”; under “MARSKVKNLLLLKQIHSAVSQIKKGKLDKALETLDKAETSARQSKSTDALYYILFTRGGILYSAKEYDQALEAYEKALEAGSDLLKTDPENADYQHYMGTTLSNTGNLLKKKSEIDKADEYYSQARKIYFDLIKKDPQNAVYQSYAGENLNNYGELLMESGSLEKACEILREAIEIYEKLYKEKPDNLGYQAELSVALSQLGGCLKHQVPEESGAAKEKLEKALELQESLLDQQPENEKVKEAIALTEERLKGL”, “failed”.
The value for “MKPEHRMDTISKLEEGAETPVTGRVMKISSPRTFTTRKGREGKLANVIIADDTGELRAVFWTENIKLLKKFREGDVIRIKDVNIRGGFGGRKEAHLMPRSTVEVLDPLEHHHHHH” was “not failed”.
Take “MRSTKTNAMEAIMKKFMGIATAAVFGLGIFTTSAKAETIVTTDVLNVRENPTTESKVVGKLLDGYKVNVLHTENGWSKVQLNSGKEAFISADYTKDTYYVTANVLNVRAGANTDSEILGKLKKDDVIETTHQVQNDWIQFEYNGKTAYVHVPYLTGKAPVKVQPVAKVEKTTTVQDTAKVREAAKAQEVAETQAKAKAVEATKAREAAEAQAEVKAQEAAKAREAAKAQEAAKAQADAEAQAEVKAQEAAKAREAAKAQADAEAQAAAKAQEAAKAREAAKAQEAAEAREAAKAQEAREAAKAQEAAKAQKSATQQPVAKETETSTPSSSRELRVVATAYTADPLENGYKAGDQVKSALGHNLTANPNMKLIAVDPSVIPLGSKVWVEGYGVAIAGDTGGAIKGNKIDVLMPDKGSSSSWGRKTVTVKVLNLEHHHHHH”: the protein production result is listed as “not failed”.
Under “MRNETGGTMVVDLQTDPYNNIHSRHNLSYDLSEGPKPRPKFGNISKTDHDEIFPPDDPIIINSNVTHQRFSSVSASTMSSGPASGEGSPCVMSPWARVSPPWGADFNEDNVLETNGLIGSIVRKEGHIYSLAASGDLLYTGSDSKNIRVWKNLKEHAGFKSSSGLIKAIVIFGDRIFTGHQDGKIRIWKVSKRKPGKHKRVGTLPTFKSMVKSSVNPKHFMEVRRNRNSVKTKHNDAVSSLSLDVELGLLYSSSWDTTIKVWRIADSKCLESIHAHDDAINSVMSGFDDLVFTGSADGTVKVWKRELQGKGTKHTLAQVLLKQENAVTALAVKSQSSIVYCGSSDGLVNYWERSKRSFTGGILKGHKSAVLCLGIAGNLLLSGSADKNICVWRRDPSDKSHQCLSVLTGHMGPVKCLAVEEERACHQGAKASVAEGDRKWIIYSGSLDKSVKVWRVSERMATWKEMDEPAASSERKSSSSPHEGSGAWSSRNVEK” stands “failed”.
The value for “MNFIQSNLNNLLAIAWFALCWGGYTRYAIWKGRDTACLASVLHLYREDWMRRMLLRDNRIADASVIGNLERNASFFASSTLIILAGILTVLGASDRALSLLADLPLVQQTSQGMSEIKLLCLAMVFVYAFFTFSWCMRQYNFAAVLVGSAPMIGERLVNELERKAFASRAARVLSLAANQFNLGLRSYYFGMAMLSWFISPWLFMAMSVGVVLILYRREFHSDVLDVMVFTPTESVLSEPAKESSVVSN” was “failed”.

The record behind these values is a protein production outcome set (Wang et al. 2014).
